Patent publication EP0607332B1

Target: CD2 (human) (UniProt P06729)
Experiment: cell-based or functional assay

UniProt P06729, sequence (P06729 25-351 limits assumed, form in doubt): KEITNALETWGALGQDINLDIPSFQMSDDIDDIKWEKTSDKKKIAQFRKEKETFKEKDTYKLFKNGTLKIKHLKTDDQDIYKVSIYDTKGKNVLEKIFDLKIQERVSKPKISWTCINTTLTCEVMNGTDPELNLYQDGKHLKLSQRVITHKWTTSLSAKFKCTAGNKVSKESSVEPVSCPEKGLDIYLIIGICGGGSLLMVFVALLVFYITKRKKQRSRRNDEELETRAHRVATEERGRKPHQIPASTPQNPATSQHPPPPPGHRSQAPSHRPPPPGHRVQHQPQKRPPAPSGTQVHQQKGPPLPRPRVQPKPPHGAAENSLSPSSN

- inhibition of allogeneic T cell activation by normal skin epidermal cells, 50 ug per ml antibody: 40%
- inhibition of autologous T cell proliferation ([3H]TdR incorporation) in response to lesional psoriatic epidermis, 50 ug/ml antibody, against isotype-matched control: 60%
Substance: anti-CD2 monoclonal antibody TS2/18
